# Assay: soluble on expression in E. coli; label from the status in PepcDB or PDB records
row,Sequence,soluble on expression in E. coli
1,MSLVAFHEVRFPLRLALGVSGGPVRRTDIVNLSNGRENRNQRWRNARRAYDAGSGIRSVADLYEVLAFFEARRGEMYGFRFRDPVDFKSCPPGETPAATDQRIGTGDGVVTGFQLVKTYADAGGSFSRRIDKPVEGSVIVSVEGVKAAPTDLSVDHATGMVIFRAGRAPPTGAVIRAGFEFDVPVRFAIDRIDINVTAFEAGRIPSIPLMEILPEGHHHHHH,soluble
2,MSLVDTEIWLRLMSISSLYGDDMVRIAHWLARQSHIDAVVLQQTGLTLRQAQRFLSFPRKSIESSLCWLEQPNHHLIPADSEFYPPQLLATTDYPGALFVEGELHALHSFQLAVVGSRAHSWYGERWGRLFCETLAKHGVTITSGLARGIDGVAHKAALQVNGVSIAVLGNGLNTIHPRRHARLAASLLEQGGALVSEFPLDVPPLAYNFPRRNRIISGLSKGVLVVEAALRSGSLVTARCALEQGREVFALPGPIGNPGSEGPHWLIKQGAILVTEPEEILENLQFGLHWLPDAPENSFYSPDQEDVALPFPELLANVGDEVTPVDVVAERAGQPVPEVVTQLLELELAGWIAAVPGGYVRLRRACHVRRTNVFVEGHHHHHH,soluble
3,MSLVEELLKITLKSDELHRRLGGGIPAGTIMLIEGDRGTGKSILSQRLLYGFLMNGYTSSYVSSQYTTVEYIKQMMSISYDVIPFLIRKKLVFVSLYPLLSGVSEERKFLSRLLGEPRLWDQDVVIIDSFSSVLSREQDVRAVRNFLMYIKKLSSLGKVIILTANPEELSRDVMFLLEEASTLLIRLNVRVFGGDLKNSATIVKYNNAKGAFQKIIPFRVEPKVGLVVEIAAVVEGHHHHHH,soluble
4,MSLVLIQGAGIAGLALAREFTKAGIDWLLVERASEIRPIGTGITLASNALTALSSTLDLDRLFRRGMPLAGINVYAHDGSMLMSMPSSLGGNSRGGLALQRHELHAALLEGLDESRIRVGVSIVQILDGLDHERVTLSDGTVHDCSLVVGADGIRSSVRRYVWPEATLRHSGETCWRLVVPHRLEDAELAGEVWGHGKRLGFIQISPREMYVYATLKVRREEPEDEEGFVTPQRLAAHYADFDGIGASIARLIPSATTLVHNDLEELAGASWCRGRVVLIGDAAHAMTPNLGQGAAMALEDAFLLARLWCLAPRAETLILFQQQREARIEFIRKQSWIVGRLGQWESPWSVWLRNTLVRLVPNASRRRLHQRLFTGVGEMAAQEGHHHHHH,not soluble
5,MSLVLPSGAFTLKNVTVPAAIFGQRGDLISTDIGIVDGQISAPGGKVIEMAEAMVLPAFVDCHTHLDKGHILPRAQNPDGTFVGALTSVREDHLNWTSKDVRTRADFSIRCAYAHGTRAIRTHVDSMNGQYKRSWPVFAGLREKWANKVELQMTSLITCESYGMPEYAEIAATVAHFDGVLGMVSFPMPDLKKVLLSHFETAGNLGLALDFHTDETMDPSSETLRVIAECVMETGFCGRVLVGHCCSLSQQEENLAMDTLDLVAKAKIDVVSLPMCNLYLQDRHAGRTPRGRGVTLVHEMKARGINVSFASDNTRDPFYAYGDMDMLEVMRMATRIAHLDHSDFDWVKSFSQTPAEVCDFPDLSLAHGTTADLVIFNARNWNELYSRPQSDRIVLRNGIAIDRKLPSYSELDALLEAYKEGHHHHHH,soluble
6,MSLVLQMKSGGVVSDARTELDTQRLAKYIGGKHALVAQGGGQRGIFTAGVLDAFLLSNFDPYHEFYGTSAGALNLCAFLSRQTGLSKAFILELTTRAEFFHLFSYIRRKQYMNMQWALDRIGEYPYRLDLDMARQALGKRKAYAAVTSADDLKDAYFPMLGADWQQVLLATCAIPGLYPEPVTLAGKQYIDGGVSASIPVQEAWRKEARFITVIRTEFMSKEEETPSPSATELPLWLREPLNHLQHQLQHKWSGWRQEWNEFLQQQKLRAKEQKKEQKHLDALNGGRWLFGADDIYRLSHLLGSKFDAGLADLLMVHYQTYTLTSEFLDAHHDDTFIAQIMPSEPLHSNSLLSSPEALQYDYELGLKAGYRFLKAYSEAETFRKEGHHHHHH,soluble
7,MSLVMGQEKLYIEKELSWLSFNERVLQEAADKSNPLIERMRFLGIYSNNLDEFYKVRFAELKRRIIISEEQGSNAHSRHLLGKIQSRVLKADQEFDGLYNELLLEMARNQIFLINERQLSVNQQNWLRHYFKQYLRQHITPILINPDTDLVQFLKDDYTYLAVEIIRSDSIRYALLEIPSDKVPRFVNLPPEAPRRRKPMILLDNILRYCLDDIFKGFFDYDALNAYSMKMTRDAEYDLVHEMEASLMELMSSSLKQRLTAEPVRFVYQRDMPNALVEVLREKLTISRYDSIVPGGRYHNFKDFINFPNVGKANLVNKPLPRLRHIWFDKAQFRNGFDAIRERDVLLYYPYHTFEHVLELLRQASFDPSVLAIKINIYRVAKDSRIIDSMIHAAHNGKKVTVVVELQARFDEEANIHWAKRLTEAGVHVIFSAPGLKIHAKLFLISRKENGEVVRYAHIGTGNFNEKTARLYTDYSLLTADARITNEVRRVFNFIENPYRPVTFDYLMVSPQNSRRLLYEMVDREIANAQQGLPSGITLKLNNLVDKGLVDRLYAASSSGVPVNLLVRGMCSLIPNLEGISDNIRAISIVDRYLEHDRVYIFENGGDKKVYLSSADWMTRNIDYRIEVATPLLDPRLKQRVLDIIDILFSDTVKARYIDKELSNRYVPRGNRRKVRAQLAIYDYIKSLEQPEEGHHHHHH,soluble
8,MSLVMSMANKREPAPGWPIVSGEYVVGNPESCVGVVTLGSHGLEQACIDAGAAIAGPCHTENLGIEKVVANYISNPNIRFMILCGSEVQGHITGQCFKALWENGIGDDGGIIGAKGAIPFLENVNKEAVERFRRQIVEVVDLIDCEDIGKITQAIKECLSKDPGAIDEDPFIIELEGGKGGGEEEEGVIKPITPEMAIIESRMRLIGNEMCYNGLLAKWQAGYYNGKEGHHHHHH,not soluble
9,MSLVNQLSLFIDVVQQGSFTKAAALHDMDNSALSKQIKKLEAELGVQLLNRSTRTFSLTPAGEEILEQAYQLVGSLDNVKSIADSYQAVPKGRIRITAPLHIGQGYLQPVISQFMTTYPDVEVVLMMDDKRSDIISEHFDVAFRLGRLDDSSLIAKKVADIRGVILASHSLIERFGEPSTPEELVNLPSVIYSNGTLTVDTVRLGESPDSSQFKSYKMKGNYKVNDVRTLLSAVQDGLGYAVVASSNLERSIESMGLTTLLTDYPLCNQGLAIYALYPHRKQTALVREFISAVQKHIGHPPLWEQHIPNFASLYPVKKGQ,not soluble
10,MSLVSGFSVTLGEATSSNPSYKSAVMDYFKAKTDKDLQSADIKIVTASEVNEVSRGVTGRVYSPSQILSCAMVDLSYSDGIKVSVDTSKIRVVTPEMYASALRSSGIDRGYVVVTSPVPASGEAALAGVLKSYEIAVGEQIPEEAKRVSVEEIYLQSRLVNETNATGDRVAELFDEVKNRTQSQNLQDPADIQRVVVDVSQQMNINLTETQVQQVADSVAASQRVQGSLTEFKQRLEGVSQQVGGSGILDQIYAFLQSIYNYIMGIASPEGHHHHHH,soluble
11,MSLWKNFNFVTKYFTKRRQRYITKTIAMNQQEFQLREITYQDIKDLLAIEREVYAGELPWTMSAFMAELGSKAPHLYLLAAINGKTVGFIGCRIQGTDAHITNVAVHTAYQGLGLGRSLIEETRIFAKKNRCETLSLEVRMSNVKAQRLYRKIGFVSQTVKKGYYDENNEDALEMIIDLKEEEGHHHHHH,soluble
12,MSLYGRHTISIILREIFRLMDYPSIDTLLESAHIVTLPMKYPFMGLSERQAVLFEGPNSWAEYSPFMGCNDTRMWLASAIEYGWGNTNVLSVPNLDLDNTNFASRSKYGYIANPQTSNKDHSDNKRFYTQTKNHREIPVNAILPDIPASKMSEILGKDLQGCKCVKIKVGKHFQDRDIHRIRAVLDFMGADTMLRLDANCKWNVSETLNNLDVLEDNDLLENVSYIEQPCRTTRELITLKQKMDTRGYVTKIAIDESLRDLLLHWQKNRKWSNNSGITYTTELRETLSACDMLVLKLQPMGGMRAVADLLESIKNNIKVNVGYTVSSSLETSLGIEMGLALALNLPNITLPVGLATAGLLDADITDDPLLPNKGYITPRKIEVNKKLLNRYAADKRHVVWWHRRIRAAHRALFQDLSDEGHHHHHH,not soluble
13,MSLYHYFRPAQRSVFGDLMRDMAQMERQFTPVCRGSPSESSEIVNNDQKFAINLNVSQFKPEDLKINLDGHTLSIQGEQELKTEHGYSKKSFSRVILLPEDVDVGAVASNLSEDGKLSIEAPKKEAIQGRSIPIQQAPVEQKTSE,not soluble
14,MSLYKDDSLTLHTDLYQINMMQVYFEQGIHNRHAVFEVYFRKEPFNNGYAVFAGLQRMVEYLEQFQFSETDLAYLEELGYPENFLTYLKELRLELTIRSAKEGDLVFANEPIVQVEGPLGQCQLVETALLNIVNFQTLIATKAARIRSVIEDEPLLEFGTRRAQELDAAIWGTRAAMIGGADATSNVRAGKRFDIPVSGTHAHALVQAYGNDYDAFMAYAKTHKDCVFLVDTYDTLKVGVPTAIRVAKEMGDKINFLGVRLDSGDLAYLSKTVRQQLDDAGFTEAKIYASNDLDENTILNLKMQKAKIDVWGVGTKLITAYDQPALGAVYKIVSIEQEDGSMRDTIKLSNNAEKVSTPGKKQVWRITSREKGKSEGDYITFTDINVNELTEIEMFHPTYTYIKKTVKEFDAIPLLVDIFVKGELVYQLPTLAEIKAYAKKEFDKLWDEYKRVLNPQDYPVDLARDVWQNKMALIDNIRKDAYGKSEEGHHHHHH,soluble
15,MSLYKDDSLTLHTDLYQINMMQVYFNQGIHNKRAVFEVFFRKEPFANGYAVFAGLERMIAYLQGLSFSETDIAYLEELGYPADFVAYLKEFKLELSVKSAKEGDLVFANEPIVQIEGPLAQCQLVETAILNIVNFQTLIATKAARIRSVIEDEPLLEFGTRRAQEMDAAIWGTRAAVIGGANATSNVRAGKLFGIPVSGTHAHALVQAYGNDYDAFMAYAGTHKDCVFLVDTYDTLRLGVPAAIRVASELGDKINFLGVRIDSGDMAYLSKKVRKLLDEAGYPHAKIYASNDLDENTILNLKMQKAKIDIWGVGTKLITAYDQPALGAVYKIVSIEDDNGVMQDTIKLSNNAEKVSTPGKKQVWRITSRAKGKSEGDYITFTDTDVNSLDEIDMFHPTYTYINKKVRDFDAVPLLVDIFDQGKLVYTQPSLSDIQDYARREFDKLWDEYKRVLNPQDYPVDLACDVWQNKVNLIDRIRKEAYEKGDVKEGHHHHHH,soluble
16,MSLYKLYSMQRSGNSYKVRLALALLDAPYRAVEVDILRGESRTPDFLAKNPSGQVPLLETAPGRYLAESNAILWYLAVGTSLAPDTRMDRAEALQWMFFEQHALEPNIGSAYFWLCLVKGGRDLQTHALEDWLERGYAALQVMENHLKTNDYFAAGQLTIADIALYGYTHVADQCDFDLSTFPAVNAWLRRVEQTPGFITMDWTPETIAADPTSFAAEGHHHHHH,soluble
17,MSLYKVYGDYRSGNCYKIKLMLNLLGLPYEWQAVDILGGDTQTEAFLAKNPNGKIPVLELEDGTCLWESNAILNFLADGSQFLPSEPRLRTQVLQWQFFEQYSHEPYIAVARFIQLYEGLPEERREEYLKLHKRGYKALDVMEKQLSRTPYLVGEHYSIADIALYAYTHVADEGGFDLSRYPGIQAWMQRVQSHPRHVPMLDEGHHHHHH,soluble
